Source: article PMC3884763

Biological target: Cavernularia obesa green fluorescent protein (CoGFP), wild-type, with a histidine tag at the N-terminus (Cavernularia obesa)
Experiment: SEC

Cavernularia obesa green fluorescent protein (CoGFP), wild-type, with a histidine tag at the N-terminus (natural protein)
stoichiometry N: 2
